Assay results published in article PMC4198461.

Target: T1, TRPV2, Q9WUD2
T1 chain: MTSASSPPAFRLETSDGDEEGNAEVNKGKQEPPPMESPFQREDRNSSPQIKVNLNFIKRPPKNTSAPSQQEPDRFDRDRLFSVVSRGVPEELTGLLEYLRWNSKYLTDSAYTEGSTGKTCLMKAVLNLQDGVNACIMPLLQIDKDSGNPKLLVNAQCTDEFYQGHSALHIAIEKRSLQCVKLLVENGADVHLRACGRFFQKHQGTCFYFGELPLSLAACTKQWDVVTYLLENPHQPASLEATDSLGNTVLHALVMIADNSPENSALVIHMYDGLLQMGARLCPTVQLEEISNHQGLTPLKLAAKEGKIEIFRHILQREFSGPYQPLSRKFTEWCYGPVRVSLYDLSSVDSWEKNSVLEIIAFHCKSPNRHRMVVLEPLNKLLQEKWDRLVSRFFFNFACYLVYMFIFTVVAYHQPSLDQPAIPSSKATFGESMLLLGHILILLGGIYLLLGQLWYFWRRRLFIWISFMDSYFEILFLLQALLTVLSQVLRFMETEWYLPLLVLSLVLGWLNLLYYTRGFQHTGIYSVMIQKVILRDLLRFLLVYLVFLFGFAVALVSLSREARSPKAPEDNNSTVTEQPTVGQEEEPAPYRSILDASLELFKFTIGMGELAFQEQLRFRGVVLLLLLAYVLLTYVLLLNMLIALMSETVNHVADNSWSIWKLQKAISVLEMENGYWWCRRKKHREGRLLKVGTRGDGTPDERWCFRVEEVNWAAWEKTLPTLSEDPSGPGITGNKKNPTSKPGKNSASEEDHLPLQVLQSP
Test: SEC + native gel or EMSA + other: negative-stain EM
Details: remark: other sources report otherwise

B1: TRPV2, Q9WUD2 1-761 (natural protein)
chain: MTSASSPPAFRLETSDGDEEGNAEVNKGKQEPPPMESPFQREDRNSSPQIKVNLNFIKRPPKNTSAPSQQEPDRFDRDRLFSVVSRGVPEELTGLLEYLRWNSKYLTDSAYTEGSTGKTCLMKAVLNLQDGVNACIMPLLQIDKDSGNPKLLVNAQCTDEFYQGHSALHIAIEKRSLQCVKLLVENGADVHLRACGRFFQKHQGTCFYFGELPLSLAACTKQWDVVTYLLENPHQPASLEATDSLGNTVLHALVMIADNSPENSALVIHMYDGLLQMGARLCPTVQLEEISNHQGLTPLKLAAKEGKIEIFRHILQREFSGPYQPLSRKFTEWCYGPVRVSLYDLSSVDSWEKNSVLEIIAFHCKSPNRHRMVVLEPLNKLLQEKWDRLVSRFFFNFACYLVYMFIFTVVAYHQPSLDQPAIPSSKATFGESMLLLGHILILLGGIYLLLGQLWYFWRRRLFIWISFMDSYFEILFLLQALLTVLSQVLRFMETEWYLPLLVLSLVLGWLNLLYYTRGFQHTGIYSVMIQKVILRDLLRFLLVYLVFLFGFAVALVSLSREARSPKAPEDNNSTVTEQPTVGQEEEPAPYRSILDASLELFKFTIGMGELAFQEQLRFRGVVLLLLLAYVLLTYVLLLNMLIALMSETVNHVADNSWSIWKLQKAISVLEMENGYWWCRRKKHREGRLLKVGTRGDGTPDERWCFRVEEVNWAAWEKTLPTLSEDPSGPGITGNKKNPTSKPGKNSASEEDHLPLQVLQSP
stoichiometry N: 4
